Patent publication US20130260436A1, “Methods of Identifying and Characterizing Natural Product Gene Clusters” (Victoria LInk Limited, priority 2010, published 2013)
Several values for one entry are separate records, joined by “and”; a condition that tells them apart may be missing. Equal entries are not always repeated.

B1: slPvdD1: mBpsA with T-domain from first module of pvdD of P. aeruginosa PAO1; SEQ ID NO: 5 (protein)
chain: MTLQETSVLEPTLQGTTTLPGLLAQRVAEHPEAIAVAYRDDKLTFRELASRSAALADYLEHLGVSADDCVGLFVEPSIDLMVGAWGILNAGAAYLPLSPEYPEDRLRYMIENSETKIILAQQRLVSRLRELAPKDVTIVTLRESEAFVRPEGTEAPAARSARPDTLAYVIYTSGSTGKPKGVMIEHRSIVNQLGWLRETYAIDRSKVILQKTPMSFDAAQWEILSPANGATVVMGAPGVYADPEGLIETIVKHNVTTLQCVPTLLQGLIDTEKFPECVSLQQIFSGGEALSRLLAIQTTQEMPGRALINVYGPTETTINSSSFPVDPADLDEGPQSISIGSPVHGTTYHILDKETLKPVGVGEIGELYIGGIQLARGYLHRDDLTAERFLEIELEEGAEPVRLYKTGDLGQWNNDGTVQFAGRADNQVKLRGYRVELDEISLAIENHDWVRNAAVIVKNDGRTGFQNLIACIELSEKEAALMDQGNHGSHHASKKSKLQVKAQLSNPGLRDDAELAARPAFDLEGAEPTPEQRARVFARKTYRFYEGGAVTQADLLGLLGATVTAGYSRKAADLAPAELGQILRWFGQYISEERLLPKYGYASPGALYATQMYFELEGVGGLKPGYYYYQPVRHQLVLISEREATGKATAQIHFIGKKSGIEPVYKNNILEVLEIETGHMVGLFEQILPAYGLDIHDRAYEPAVKDLLDVADEDYYLGTFELVPHAGARDDQAEVYVQTHGGKVAGLPEGQYRYENGELTRFSDDIVLKKHVIAINQSVYQAASFGISVYSRAEEEWLKYITLGKKLQHLMMNGLNLGFMSSGYSSKTGNPLPASRRMDAVLGANGVDSAPMYFFVGGRISDEQIGHEGMREDSVHMRGPAELIRDDLVSFLPDYMIPNRVVVFDRLPLSANGKIDVKALAASDQVNAELVERPYRAPGSELEQRIAAIWSEILGVERVGLDDNFFELGGHSLLATRVISRVRQEQQLDASLKALFERPVLEAFAQGLEREVAQESSRFVRLHAETGKARPVICWPGLGGYPMNLRSLAGEIGLGRSFYGVQSYGINEGETPYETITEMAKKDIEALKEIQPAGPYTLWGYSFGARVAFETAYQLEQAGEKVDNLFLIAPGSPKVRAENGKVWGREASFANRGYTTILFSVFTGTISGPDLDRCLETVTDEASFAEFISELKGIDVDLARRIISVVGQTYEFEYSFHELAERTLQAPISIFKAVGDDYSFLENSSGYSAEPPTVIDLDADHYSLLREDIGELVKHIRYLLGE
B2: slEntF: mBpsA with T-domain from entF gene of E. coli W3110; SEQ ID NO: 11 (protein)
chain: MTLQETSVLEPTLQGTTTLPGLLAQRVAEHPEAIAVAYRDDKLTFRELASRSAALADYLEHLGVSADDCVGLFVEPSIDLMVGAWGILNAGAAYLPLSPEYPEDRLRYMIENSETKIILAQQRLVSRLRELAPKDVTIVTLRESEAFVRPEGTEAPAARSARPDTLAYVIYTSGSTGKPKGVMIEHRSIVNQLGWLRETYAIDRSKVILQKTPMSFDAAQWEILSPANGATVVMGAPGVYADPEGLIETIVKHNVTTLQCVPTLLQGLIDTEKFPECVSLQQIFSGGEALSRLLAIQTTQEMPGRALINVYGPTETTINSSSFPVDPADLDEGPQSISIGSPVHGTTYHILDKETLKPVGVGEIGELYIGGIQLARGYLHRDDLTAERFLEIELEEGAEPVRLYKTGDLGQWNNDGTVQFAGRADNQVKLRGYRVELDEISLAIENHDWVRNAAVIVKNDGRTGFQNLIACIELSEKEAALMDQGNHGSHHASKKSKLQVKAQLSNPGLRDDAELAARPAFDLEGAEPTPEQRARVFARKTYRFYEGGAVTQADLLGLLGATVTAGYSRKAADLAPAELGQILRWFGQYISEERLLPKYGYASPGALYATQMYFELEGVGGLKPGYYYYQPVRHQLVLISEREATGKATAQIHFIGKKSGIEPVYKNNILEVLEIETGHMVGLFEQILPAYGLDIHDRAYEPAVKDLLDVADEDYYLGTFELVPHAGARDDQAEVYVQTHGGKVAGLPEGQYRYENGELTRFSDDIVLKKHVIAINQSVYQAASFGISVYSRAEEEWLKYITLGKKLQHLMMNGLNLGFMSSGYSSKTGNPLPASRRMDAVLGANGVDSAPMYFFVGGRISDEQIGHEGMREDSVHMRGPAELIRDDLVSFLPDYMIPNRVVVFDRLPLSANGKIDVKALAASDQVNAELVERPGRAPKAGSETIIAAAFSSLLGCDVQDADADFFALGGHSLLAMKLAAQLSRQVARQVTPGQVMVASTVAKLATIIDREVAQESSRFVRLHAETGKARPVICWPGLGGYPMNLRSLAGEIGLGRSFYGVQSYGINEGETPYETITEMAKKDIEALKEIQPAGPYTLWGYSFGARVAFETAYQLEQAGEKVDNLFLIAPGSPKVRAENGKVWGREASFANRGYTTILFSVFTGTISGPDLDRCLETVTDEASFAEFISELKGIDVDLARRIISVVGQTYEFEYSFHELAERTLQAPISIFKAVGDDYSFLENSSGYSAEPPTVIDLDADHYSLLREDIGELVKHIRYLLGE

Key:
[1] = tested on: E. coli harbouring an activating PPTase; test: In vivo pigment synthesis activity of BpsA derivatives relative to wild type BpsA; format: cell-based; settings: for Relative activity (in vivo pigment synthesis relative to wild type BpsA): E. coli, supernatant A590
Text: A detailed description of the method used for generation of mBpsA derivatives is given in Section 4.15. Briefly, a plasmid containing bpsA lacking its native T-domain (pBPSA3) was created. This plasmid contained restriction enzyme sites which were subsequently used to introduce foreign T-domain sequence. Foreign T-domains were then amplified from the chromosomal DNA of their host organisms and introduced into pBPSA3 to generate mBpsA derivatives which contained T-domains from foreign NRPS proteins in place of the native T-domain. Only the final embodiment of the T-domain swapping platform is described in this application. This embodiment is the result of rational in-silico design as well as trial and error, which are not described. Using this final platform, five different mBpsA derivatives were generated and subsequently assessed for in vivo pigment synthesis capacity in E. coli harbouring an activating PPTase. Table 3.1 gives a summary of the mBpsA derivatives generated as well as their in vivo pigment synthesis activities relative to wild type BpsA. The derivation of in vivo pigment synthesis activity was as described in 4.10.
For second tier screening, up to 45 improved clones, along with a positive and negative control, were stored as duplicate glycerol stocks in a 96wp. From this plate duplicate overnight cultures were established in LB supplemented with 0.4% glucose and appropriate antibiotics. […] Overnight cultures were grown for 16-20 h (37° C. 200 rpm) before transfer of 20 μl of each culture into a fresh well containing 130 μL LB supplemented with 115 mM L-Gln, 0.6 mM IPTG and appropriate antibiotics. Assay plates set up in this fashion contained duplicate cultures for each clone from two separate overnights. Assay plates were then wrapped in foil and incubated for 6-24 h (18° C., 200 rpm), depending on activity of improved clones. After incubation cells were collected at the corner of each well by centrifugation and OD 590 values determined using a microplate reader. Assays were repeated at least twice before determination of clones for sequence analysis.
In vivo pigment synthesis efficiencies for recombinant BpsA proteins described in Section 3.2 were derived from three separate assays. This was necessary due to the fact that pigment synthesis of wild type BpsA saturate before activity of mBpsA derivatives was detectable. Replicate cultures for determination of in vivo pigment synthesis activity were established from overnight starter cultures in a 96 wp as described in Section 4.9.3 The values presented are derived as follows: quadruplicate values for WT BpsA and oBpsA (mutant with reduced activity) were determined after 3 h, at which point pigment production was not saturated for WT. A separate quadruplicate assay was then run to obtain a value for slEntF by comparison to oBpsA after 12 h. Quadruplicate values for slPsT and slPvdD2 were then obtained in a separate assay by comparison to slEntF after 12 h.

[2] = biological target: PP1183, putative phosphopantetheinyl transferase of Pseudomonas putida KT2440 (Pseudomonas putida KT2440); test: cell-based or functional assay
[3] = biological target: Sfp, phosphopantetheinyl transferase of Bacillus subtilis subsp. spizizenii ATCC6633 (Bacillus subtilis subsp. spizizenii ATCC6633); test: cell-based or functional assay
[4] = biological target: PcpS, phosphopantetheinyl transferase of Pseudomonas aeruginosa PAO1 (Pseudomonas aeruginosa PAO1); test: cell-based or functional assay
[5] = tested on: BpsA, single module non-ribosomal peptide synthetase of Streptomyces lavendulae ATCC 11924, purified recombinant 6His-tagged protein (apo form)

Molecule | Relative activity (in vivo pigment synthesis relative to wild type BpsA) [1] | IC50 (carrier protein competition with BpsA for limiting CoA) [2] [nM] | kcat/Km (estimate derived from IC50) (Min^-1 · µM^-1) [2] | IC50 (carrier protein competition with BpsA for limiting CoA) [3] [nM] | kcat/Km (estimate derived from IC50) (Min^-1 · µM^-1) [3] | IC50 (carrier protein competition with BpsA for limiting CoA) [4] [nM] | kcat/Km (estimate derived from IC50) (Min^-1 · µM^-1) [4] | also measured
slDhbF: mBpsA with T-domain from first module of dhbF of B. subtilis; SEQ ID NO: 13 | 0% | – | – | – | – | – | – | –
The peptide carrier protein of the Microcysitis aeruginosa NRPS/PKS MycG (mPCP), purified recombinant His6 tagged | – | 180 | 6.3 | 150 | 3.33 | 990 | 5.55 | –
PcpS, phosphopantetheinyl transferase of Pseudomonas aeruginosa PAO1 | – | – | – | – | – | – | – | Km (BpsA as variable substrate), BpsA coupled indigoidine assay [5]: 6.5 µM; kcat (BpsA as variable substrate), BpsA coupled indigoidine assay [5]: 0.687 s⁻¹; kcat/Km (BpsA as variable substrate), BpsA coupled indigoidine assay [5]: 107000 M⁻¹ s⁻¹
The aryl carrier protein from Nostoc punctiforme protein HetM (npArCP), purified recombinant His6 tagged | – | 6000 | 0.19 | 140 | 3.51 | 8460 | 0.65 | –
The peptide carrier protein of the first module of the Pseudomonas aeruginosa NRPS PvdD (pPCP), puri | – | 280 | 4.1 | 450 | 1.11 | 560 | 9.84 | –
B1 | 0% | – | – | – | – | – | – | In vivo pigment synthesis capacity (qualitative) ([1]; E. coli with activating PPTase, pigment development agar or broth): completely inactive enzyme
B2 | 5.14% and 5.14 +/− 0.28% | – | – | – | – | – | – | –
